Measured values taken from publication PMC12906813, “The Transcription Factors NFYA1 and GBF3 Jointly Regulate CHS2 to Promote Tangeretin Accumulation and Cold Tolerance in Citrus”.

Legend:
CiGBF3 = molecular target: T1, CiGBF3 (Citrus ichangensis (Ichang papeda), UniProt V4U7K8 1-421); assay: EMSA; Chemiluminescent EMSA Kit (Beyotime GS009); buffer, salt, pH and temperature not stated; conditions: protein: recombinant; tags: His (pHMGWA vector); chain copies: 2; label: biotin; blunt
T1 sequence: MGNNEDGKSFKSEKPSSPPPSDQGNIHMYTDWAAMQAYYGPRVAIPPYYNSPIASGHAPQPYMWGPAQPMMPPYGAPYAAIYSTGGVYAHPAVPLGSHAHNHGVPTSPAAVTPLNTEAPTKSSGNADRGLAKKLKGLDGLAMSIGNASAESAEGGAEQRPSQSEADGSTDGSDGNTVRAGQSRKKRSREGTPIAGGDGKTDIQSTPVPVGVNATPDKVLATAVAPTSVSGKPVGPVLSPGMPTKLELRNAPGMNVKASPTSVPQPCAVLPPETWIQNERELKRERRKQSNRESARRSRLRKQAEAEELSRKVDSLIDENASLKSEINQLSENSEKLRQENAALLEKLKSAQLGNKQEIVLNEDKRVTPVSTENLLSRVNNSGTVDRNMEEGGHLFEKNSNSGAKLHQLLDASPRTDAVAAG

CiNFYA1 = CiNFYA1 (Citrus ichangensis (Ichang papeda), UniProt A0A067ER94 1-365); assay: as above; conditions: protein: recombinant; tags: His (pHMGWA vector); label: biotin; blunt
CiNFYA1, sequence (A0A067ER94 entry or part of it): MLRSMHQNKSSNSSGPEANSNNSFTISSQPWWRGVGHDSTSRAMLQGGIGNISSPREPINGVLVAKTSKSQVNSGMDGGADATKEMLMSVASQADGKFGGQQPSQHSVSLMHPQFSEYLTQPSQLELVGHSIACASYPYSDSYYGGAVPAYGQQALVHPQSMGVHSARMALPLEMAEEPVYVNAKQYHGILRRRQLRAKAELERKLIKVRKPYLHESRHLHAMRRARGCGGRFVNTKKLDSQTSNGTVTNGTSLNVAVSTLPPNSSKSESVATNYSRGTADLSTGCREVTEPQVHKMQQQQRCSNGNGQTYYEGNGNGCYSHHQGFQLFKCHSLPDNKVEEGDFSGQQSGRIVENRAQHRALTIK

B1: CHS2-CACGTG probe (Probe 2) (dsDNA)
DNA 1: GCAGCCTAACACTATCCACGTGGTCAGCATCTGCCCGT
DNA 2: ACGGGCAGATGCTGACCACGTGGATAGTGTTAGGCTGC
B1: binds (CiGBF3).

B2: CHS2-CCAAT probe (Probe 1) (dsDNA)
DNA 1: AAAGATCCATTTAATATGTTCCAATTACCGCATTACAAGTACTAAA
DNA 2: TTTAGTACTTGTAATGCGGTAATTGGAACATATTAAATGGATCTTT
B2: binds (CiNFYA1).

B3: CHS2-mCCAAT probe (mProbe1) (dsDNA)
DNA 1: AAAGATCCATTTAATATGTAAAAAATACCGCATTACAAGTACTAAA
DNA 2: TTTAGTACTTGTAATGCGGTATTTTTTACATATTAAATGGATCTTT
B3: no binding (CiNFYA1).

B4: CHS2-mCACGTG probe (mProbe2) (dsDNA)
DNA 1: GCAGCCTAACACTATCTTTTTTGTCAGCATCTGCCCGT
DNA 2: ACGGGCAGATGCTGACAAAAAAGATAGTGTTAGGCTGC
B4: no binding (CiGBF3).
